Source: paper doi:10.1101/2020.10.04.325654 (bioRxiv, 2020)

Tests used:
GST-SdhA-CBM2 [1] = target: T1, GST-SdhA-CBM2 (Legionella pneumophila, UniProt Q6RCQ3 1029-1260); assay: ELISA
GST-SdhA-CBM2 [2] = target: T1, GST-SdhA-CBM2; assay: pull-down

Binder	binding result (GST-SdhA-CBM2 [1])	binding result (GST-SdhA-CBM2 [2])
His-tagged ASH/RhoGAP domain of OCRL (536aa-901aa) (domain or fragment) not shown	binds	–
6xHis-OCRL (enzyme) not shown	–	binds
